Data as given in the supplement of paper PMC9112550, “Optimization of the antimicrobial peptide Bac7 by deep mutational scanning” (BMC Biology, 2022).

Tested on: Escherichia coli TOP10
Assay: shrunken log2 fold change of peptide-encoding DNA abundance (4.5 h post-induction vs induction); higher = less antimicrobial activity (less host growth inhibition)
Conditions: time post-induction: 4.5 h; library: site-saturation at positions 5, 18, 19, 20
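Also: peptides expressed intracellularly from a pBAD plasmid library in pooled LB shake-flask culture, induced with 0.3% L-arabinose, DNA abundance read by NGS, three biological replicates, DESeq2 with apeglm shrinkage.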

Row | Sequence | shrunken log2 fold change
1 | RRIRIRPPRLPRPRPRPGQEPRP | -0.00674
2 | RRIRHRPPRLPRPRPRPRDTPRP | 0.123
3 | RRIRKRPPRLPRPRPRPIMMPRP | -0.0529
4 | RRIRVRPPRLPRPRPRPLSWPRP | 0.0819
5 | RRIRRRPPRLPRPRPRPYPPPRP | -0.176
6 | RRIRQRPPRLPRPRPRPTMYPRP | -0.352
7 | RRIRQRPPRLPRPRPRPEHCPRP | -0.199
8 | RRIRERPPRLPRPRPRPSIVPRP | -0.443
9 | RRIRLRPPRLPRPRPRPYCVPRP | -0.622
10 | RRIRERPPRLPRPRPRPREYPRP | -0.242
11 | RRIRYRPPRLPRPRPRPWAIPRP | 0.0155
12 | RRIRHRPPRLPRPRPRPSYTPRP | -0.714
13 | RRIRIRPPRLPRPRPRPIEQPRP | -0.489
14 | RRIRLRPPRLPRPRPRPTDAPRP | 0.193
15 | RRIRDRPPRLPRPRPRPIYNPRP | -0.771
16 | RRIRCRPPRLPRPRPRPGQDPRP | -0.0365
17 | RRIRPRPPRLPRPRPRPKKHPRP | -0.0812
18 | RRIRSRPPRLPRPRPRPKFFPRP | 0.113
19 | RRIRNRPPRLPRPRPRPWAMPRP | -0.175
20 | RRIRARPPRLPRPRPRPCCYPRP | 0.0589
21 | RRIRRRPPRLPRPRPRPMVDPRP | 0.0808
22 | RRIRHRPPRLPRPRPRPNWVPRP | -0.126
23 | RRIRARPPRLPRPRPRPWQCPRP | -0.197
24 | RRIRSRPPRLPRPRPRPSIRPRP | -0.41
25 | RRIRKRPPRLPRPRPRPSDQPRP | 0.0938

Row | Sequence | shrunken log2 fold change
26 | RRIRQRPPRLPRPRPRPQYWPRP | -0.0582
27 | RRIRDRPPRLPRPRPRPKCNPRP | -0.13
28 | RRIRPRPPRLPRPRPRPAMPPRP | 0.246
29 | RRIRNRPPRLPRPRPRPFAWPRP | 0.0341
30 | RRIRTRPPRLPRPRPRPSGPPRP | -0.339
31 | RRIRKRPPRLPRPRPRPIGSPRP | -0.0113
32 | RRIRARPPRLPRPRPRPDTKPRP | 0.0293
33 | RRIRIRPPRLPRPRPRPEPTPRP | 0.659
34 | RRIRWRPPRLPRPRPRPPLLPRP | 0.395
35 | RRIRNRPPRLPRPRPRPDTTPRP | -0.129
36 | RRIRMRPPRLPRPRPRPFARPRP | 0.412
37 | RRIRHRPPRLPRPRPRPYDQPRP | -0.291
38 | RRIRQRPPRLPRPRPRPPFVPRP | 0.0462
39 | RRIRDRPPRLPRPRPRPATCPRP | 0.171
40 | RRIRARPPRLPRPRPRPVPWPRP | 0.452
41 | RRIRQRPPRLPRPRPRPCCDPRP | -0.0081
42 | RRIRHRPPRLPRPRPRPCCTPRP | -0.181
43 | RRIRMRPPRLPRPRPRPEYDPRP | 2.81
44 | RRIRPRPPRLPRPRPRPQELPRP | 0.126
45 | RRIRARPPRLPRPRPRPTLHPRP | 0.584
46 | RRIRFRPPRLPRPRPRPLRQPRP | 0.0138
47 | RRIRKRPPRLPRPRPRPCDYPRP | -0.0336
48 | RRIRWRPPRLPRPRPRPNNSPRP | -0.723
49 | RRIRDRPPRLPRPRPRPNMFPRP | -0.0684
50 | RRIRFRPPRLPRPRPRPRKRPRP | 0.263

Row | Sequence | shrunken log2 fold change
51 | RRIRNRPPRLPRPRPRPQADPRP | -0.0176
52 | RRIRCRPPRLPRPRPRPSNPPRP | 0.442
53 | RRIRQRPPRLPRPRPRPNNHPRP | -0.71
54 | RRIRHRPPRLPRPRPRPRVSPRP | 0.106
55 | RRIRQRPPRLPRPRPRPYLMPRP | -1.39
56 | RRIRARPPRLPRPRPRPAQMPRP | 0.743
57 | RRIRHRPPRLPRPRPRPVELPRP | 0.115
58 | RRIRKRPPRLPRPRPRPGLHPRP | 0.0334
59 | RRIRIRPPRLPRPRPRPMMDPRP | -0.132
60 | RRIRHRPPRLPRPRPRPAMHPRP | 0.0521
61 | RRIRNRPPRLPRPRPRPLEQPRP | -0.166
62 | RRIRTRPPRLPRPRPRPTPIPRP | 0.139
63 | RRIRIRPPRLPRPRPRPCPMPRP | -0.367
64 | RRIRWRPPRLPRPRPRPFLHPRP | -0.772
65 | RRIRNRPPRLPRPRPRPMLCPRP | 0.0164
66 | RRIRERPPRLPRPRPRPGDWPRP | 0.212
67 | RRIRNRPPRLPRPRPRPTMVPRP | -0.0433
68 | RRIRVRPPRLPRPRPRPIYRPRP | -0.491
69 | RRIRYRPPRLPRPRPRPCPLPRP | -1.91
70 | RRIRFRPPRLPRPRPRPPECPRP | -0.0973
71 | RRIRWRPPRLPRPRPRPNRPPRP | 0.078
72 | RRIRKRPPRLPRPRPRPITSPRP | 0.22
73 | RRIRFRPPRLPRPRPRPCRNPRP | -0.0376
74 | RRIRHRPPRLPRPRPRPACIPRP | -0.132
75 | RRIRNRPPRLPRPRPRPKFVPRP | -0.0126

Row | Sequence | shrunken log2 fold change
76 | RRIRDRPPRLPRPRPRPIYFPRP | -0.839
77 | RRIRTRPPRLPRPRPRPIMEPRP | -0.409
78 | RRIRPRPPRLPRPRPRPAPSPRP | 0.51
79 | RRIRTRPPRLPRPRPRPAQFPRP | -0.0946
80 | RRIRKRPPRLPRPRPRPREEPRP | 1.2
81 | RRIRLRPPRLPRPRPRPNEHPRP | -0.175
82 | RRIRYRPPRLPRPRPRPCGGPRP | 0.00427
83 | RRIRCRPPRLPRPRPRPRNWPRP | 0.366
84 | RRIRRRPPRLPRPRPRPHCLPRP | -0.192
85 | RRIRKRPPRLPRPRPRPYHTPRP | -0.673
86 | RRIRFRPPRLPRPRPRPCYTPRP | -0.239
87 | RRIRTRPPRLPRPRPRPLTHPRP | -0.0616
88 | RRIRDRPPRLPRPRPRPEYKPRP | 0.27
89 | RRIRYRPPRLPRPRPRPNKLPRP | -0.987
90 | RRIRIRPPRLPRPRPRPLDNPRP | 0.0097
91 | RRIRGRPPRLPRPRPRPRWDPRP | 0.696
92 | RRIRKRPPRLPRPRPRPTIQPRP | -0.0129
93 | RRIRVRPPRLPRPRPRPTFNPRP | 0.127
94 | RRIRMRPPRLPRPRPRPNQDPRP | -0.123
95 | RRIRCRPPRLPRPRPRPPLHPRP | 0.135
96 | RRIRNRPPRLPRPRPRPGYYPRP | -0.851
97 | RRIRARPPRLPRPRPRPRVSPRP | 0.492
98 | RRIRVRPPRLPRPRPRPGYSPRP | -0.553
99 | RRIRYRPPRLPRPRPRPGPKPRP | 0.185
100 | RRIRFRPPRLPRPRPRPQRAPRP | 0.462

Row | Sequence | shrunken log2 fold change
101 | RRIRIRPPRLPRPRPRPINKPRP | -1.11
102 | RRIRPRPPRLPRPRPRPRPKPRP | 3.22
103 | RRIRCRPPRLPRPRPRPGNSPRP | -0.429
104 | RRIRIRPPRLPRPRPRPYAPPRP | -0.242
105 | RRIRKRPPRLPRPRPRPDWNPRP | 0.158
106 | RRIRSRPPRLPRPRPRPECHPRP | 0.411
107 | RRIRNRPPRLPRPRPRPWMQPRP | -0.218
108 | RRIRPRPPRLPRPRPRPEYPPRP | 0.045
109 | RRIRTRPPRLPRPRPRPDMKPRP | -0.0377
110 | RRIRSRPPRLPRPRPRPPKAPRP | -0.259
111 | RRIRYRPPRLPRPRPRPPAEPRP | 0.569
112 | RRIRRRPPRLPRPRPRPRQIPRP | 0.452
113 | RRIRFRPPRLPRPRPRPVSAPRP | 0.25
114 | RRIRKRPPRLPRPRPRPQQLPRP | 0.0814
115 | RRIRYRPPRLPRPRPRPNMLPRP | -1.22
116 | RRIRIRPPRLPRPRPRPWWMPRP | -0.0772
117 | RRIRTRPPRLPRPRPRPECGPRP | 0.51
118 | RRIRERPPRLPRPRPRPYHKPRP | -0.804
119 | RRIRMRPPRLPRPRPRPMCTPRP | -0.0175
120 | RRIRLRPPRLPRPRPRPCWYPRP | -0.176
121 | RRIRHRPPRLPRPRPRPCFNPRP | -0.588
122 | RRIRSRPPRLPRPRPRPNCEPRP | -0.133
123 | RRIRNRPPRLPRPRPRPQTFPRP | -0.0594
124 | RRIRARPPRLPRPRPRPTGEPRP | 0.0455
125 | RRIRMRPPRLPRPRPRPPLQPRP | 0.661
